Among the data in a protein production outcome set (Wang et al. 2014) are protein production values, retold here.

The data set can be described thus: label from the status in PepcDB records.
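Note: failed if final PepcDB status was selected cloned or expressed and not failed if soluble or beyond.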

Regarding “MTHIQLDFSKTLEFFGEHELKQQQEIVKSIHKTIHEGTGAGSDFLGWVDLPVDYDKEEFSRIVEASKRIKENSDVLVVIGIGGSYLGARAAIEMLTSSFRNSNEYPEIVFVGNHLSSTYTKELVDYLADKDFSVNVISKSGTTTEPAVAFRLFKQLVEERYGKEEAQKRIFATTDKEKGALKQLATNEGYETFIVPDDVGGRYSVLTAVGLLPIATAGINIEAMMIGAAKAREELSSDKLEENIAYQYATIRNILYAKGYTTEMLINYEPSMQYFNEWWKQLFGESEGKDFKGIYPSSANYTTDLHSLGQYVQEGRRFLFETVVKVNHPKYDITIEKDSDDLDGLNYLAGKTIDEVNTKAFEGTLLAHTDGGVPNMVVNIPQLDEETFGYVVYFFELACAMSGYQLGVNPFNQPGVEAYKQNMFALLGKPGFEDLKKELEERL”, the protein production result is given as “failed”. The result for “MTHNIHDNISQWMKSNEETPIVMSSRIRLARNLENHVHPLMYATENDGFRVINEVQDALPNFELMRLDQMDQQSKMKMVAKHLISPELIKQPAAAVLVNDDESLSVMINEEDHIRIQAMGTDTTLQALYNQASSIDDELDRSLDISYDEQLGYLTTCPTNIGTGMRASVMLHLPGLSIMKRMTRIAQTINRFGYTIRGIYGEGSQVYGHTYQVSNQLTLGKSELEIIETLTEVVNQIIHEEKQIRQKLDTYNQLETQDRVFRSLGILQNCRMITMEEASYRLSEVKLGIDLNYIELQNFKFNELMVAIQSPFLLDEEDDKSVKEKRADILREHIK” reads “failed”; that for “MTHSQWQSLPRRGAYVAAINGTLGGGCAGLITASVTVVWLHAWRYWPAVLGVTAVIALLGAWLAVKRHRLTQWQLDQHGLALQRGHLWQSDTRVPISRVQHVDLRRGPIERATGLTTLVVHTAGSRLNAVALSGLDQDDAERLRDRLARQLDHDDDAL”, “failed”; that for “MTHTVIVPGVGGSEQHHWQSWLQRQLSSCSRVEQNDWNLPVLSDWVSHLISHVQQLEQPVQIVAHSFGCLTTLAALEQHPQLINQVKHITLVAPANPERFGEAGFARDSQTDYRAYFHQLKPSIKTQLIISENDPWLDFEEALQLAKSWQVRATNLGKVGHINVASGFGPFPEIFDYMLP”, “failed”. In the case of “MTHVEDDKEFKEKPLVQVLSDDDSEVKEAKDGGGEEVTGGDGEGEANEEDLGTEYLVRPVGEVEDEDDASDFDPEENGLDEEEGDEEIEEDDVDEDISLSAGKSEPLSKRKRVAKDHSEQGDVTGDNIRPSKR”, the protein production result was “failed”.

For the sequence “MTIAEIRKFAQTTQKFVEAENLFEHGNVVLPKKYLNKARGMAEVLYNSQVIKVSFTAKDGELTCKCSCLANVDNCVHIVAVLLKYHQMLVESKRSFNLAEAFHLDCDQAEMLIENLSLEIIAGGNFKLGFTINLDKHNPQPSVLRFYCCDATFVYFLHLENDTLHSVELSKFKPEERATLLFFDKLCKQFTVGYDRNSLLFPLAGFLKELQANTEPTIFVFNDDKIDNILFLRISKKHHGLNHVCGFSGKKVFDFVTYKQKEKQIVLRSAYLSKFTDFKFPYTINIYKLQFGEPLFFYFLIQLKRDGFKNFYFQSEDSIVKEKEYLPKLYFKVEYDPVKNKFVSDAFFKYKNHFNKGTTTVYPHRYYMAKKSDRGGFNRLLFYEEAVENFYQDQFDLGYFRKFEHLPIQDKNQIEAFKAALDDLMPVDLAEVSLSDNLLHQKPLHFALSDLEAVAVDDKQIKLSFAPSAVELKLIKRILSAYHKGNVVCIDQESWYDLKQPAAKELIQFNQFDLRNATSDGNHIYLPKYYLFEVAKIFSQYLDIKNLFDVPTIKKIEDQNNNVFDLSLEHKKITSLRNYQQEGVKIRGLEENKFGGILADEMGLGKTVQVIFALLDSYLKNHVNLPSLIIVPASLLLNKSEFEKFAPQIKVKVANIPSKERGELYEKLTNEILIVSFNVLRSDVKLITKQRFHYVVIDEAQGIKNDSSSITKAAKKVKGNFCLALTGTPIENRLLDLSCFDFVLPSFLGNKKQFTDQFEKEKTDQSFHLLMQRTSPFILRRTKSKVLKELPNKITTDIYVELNPMHQKLYEEERDRGLEEIKQIQDKSSFNILTLILKLRHLCSLPKNSQGILENSAKKEAALEIIHEAIENQRKIILFTQFIDVIDHFKDTFKEQGIEYFIFDGRKSPKSRHSIIEKFNNAKNPCVLLASLKAGGVGINLTAAEVVIHFDVWNTAVENQATDRAHRIGQKKTVQVYRIIAKNTIEERVCQVQAEKQELVSKTLVEDVNFFESLTNEELLRLFE”, the protein production entry is “failed”.

Turning to “MTIAQEPTALNFECETGNYHTFCPISCVAWLYQKIEDSFFLVIGTKTCGYFLQNAMGVMIFAEPRYAMAELEEGDISAQLNDYAELKRLCEQIKRDRNPSVIVWIGTCTTEIIKMDLEGLAPKLEGEIGIPIVVARANGLDYAFTQGEDTVLAAMAHRCPDKAPVAEAEKNLEHHHHHH”, the protein production entry was “not failed”. Consider “MTIDDMSLVVGMYGNYEVTKTGNLVGILEVSGINLDLLNETEQQDVFEDYGAFLMSTLGEGVDDTLQFLEPTIPVNMTTYLNGLKRRYLALQKDHPEQQFKIQLIASYLDHFTKVQESKNMTTKQHLLIVKVPIKDKSAESLNLAVAHLDEKIEQVKRDIENALTDFDVTAKILTSQEVQEILKNLINFNGLEHHHHHH”, for which the protein production entry is given as “not failed”. On to “MTIFEKNVIEFVTVAAEFCAFLERAEHMKRKAFVDTSLKILPLLYLKASLLPKCETIGDEAPETYVTEEIYEILRINLAGLMGEKDDYLDVFVQDMVYSDQPIKKSVSEDLADIYQDIKDFIFVFQLGLNETMNDSLAICQENFGLLWGQKLVNTLRALHDVKYLEHHHHHH”, for which the protein production entry is on record as “failed”. Consider “MTIHDNTLFSADERSRFLSSYASLIRTLAPDRQLVKKVRSLLSRFTELGCFDRDKNGMHGLLRNMEVARIASCEIGLGIEAIGALLFYRPAMKGLTRPEEIAELMGEDVARLIDLLLKTSEIYMRNTAINTANFEHFLLSIAEDIRVVLLIIADRSYLLRQAKDMVCAEERTALAAEVSYLYAPLAHRLGLYAIKSEMEDLCLKYTDRQTFDFIKRKLGETKRSRDAYIEAFIAPLRRRLDEALPNIPYEMKGRTKSINSIRNKLRQQGIEFESIYDLFAIRIILDVPVKDEKAACWHVYSIITDMYQPNPQRMKDWISIPKSNGYESLHVTVMGPQNRWVEVQIRSRRMDEVAERGLAAHWKYKGIKSESGLDEFLTSVRETLEARDHSSDDSAETVKNFKMNLFTDEIYAFTPTGELIKLPQGASVLDFAFAIHSRIGCQAVGANVNGKNVPLKHKLENGDSVSIITSAQQTPKKDWLSYVVSSKARNKIKQQLRLQMESSIGVVKELLNRRLKNRKLPFEEAVFTRVVRRKGFKHLTDFYMEIAADRLDVQEVLELYSHELEEEQRRDAGSGAARRSADTFVAHPPKEEEIVKGGKSDVLVIDNNMTGVEYSFGKCCNPIYGDSVFGFVSNSGIKIHRTDCPNAPDMFSRYGYRIIEARWSGKGSTGYEATLHVIGQDNLAIVTNITSVINKEPGVSLRAYSINSKDNLFEGVFTVEVPDTSTLSILLRKIRATHGVKSAERH”, for which the protein production result is listed as “failed”.

In the case of “MTIKIALLGFGTVAKGIPYLLKENQHKLLSLEGEDIVIDKVLVRDNESRQRFINQGFTYNFVTEINTILQDSQIDIVVELMGGIEPAKTYLSQALGFGKHIVTANKDLIALHGKELMDLADARGLALFYEGAVAGGIPILRTLSHSFASDKMTRLLGILNGTSNFMLTKMFEEGWSYEQALKKAQELGYAESDPTNDVEGIDTAYKATILSQFGFGMPIDFDDVNYKGISSIRSEDVEVAQEMGFAIKLVADLRETPTGISVDVSPTLISQKHPLAAVNHVMNAVFIESIGIGQSLFYGPGAGQNPTATSVLADIIDISRSIRSQIKIKPMNTYHCPCRLSMQSDIFNEYYLAISLRNAEDSDTLGRYFEQENIGLKNVIEKALGDKQQEIYVLTDEVSQEKITQFIEEFPESGVIQLINVFKVIGG”, the protein production entry was “failed”.
